Test: soluble on expression in E. coli; label from the status in PepcDB or PDB records

Sequence | soluble on expression in E. coli
MTRAQPEPVQVVKQRRDAALRALVSGVPYITYLGIQFDRRGDELTAVLPFDEKLIGNPMLPAIHGGVTAAFLEVASIIELSWSVLWHEMEQGRLDPDQIEARLPRLPKTIDFTVDYLRSGLPRDAYARARVNRSGRRYASVHVEAWQDNRLRPFAQATGHFLMPARNDLEHHHHHH | soluble
GMAVECIKDKVTRYPERASYSDEDLVAMLDRNFTCTVSFIDGGIPYAIPMMLASEGKTIYLHGSMKSRIYGILKTGQLIAISLLEINGIVLAKEIKNNSINYVSALIFGRPYEIDDTEKKIEVFRLLTEKLVKGRWDNSIKPSYEDLNGVFVFAVKPETFSMKARTGPPHDTSTDDIWSGVLPIQHTISEAGENAPEYVKSLYGKRIFI | soluble
GPDSEMCKDYRVLPRIGYLCPKDLKPVCGDDGQTYNNPCMLCHENLIRQTNTHIRSTGKCEESSTPGTTAASMPPSDE | soluble
MAHHHHHHMQMRRDALGNGKALEFAKELSLAYKQVIQATQHIGKQRQALTGCTDLSVKTREWAAAEHDIAGALEKYGAAPYWVEQRGWRPGRLQSFEAAHSRASSGTEVSYLCSRLRGYVKAAFTAHVTKPPKLNASEVDVAELLTFFTGSGDGALVVEVALAKFFVVENMHVRAPELWVMNYLLHCYGVEEGIMLAHEADVVDGGFKQQGGGAFEEQFLIQKNIWAVSQVLVPHCYAVTRCDEATAKAGVEACVRCEGTEGQGTEGAFPTWPGTPPASLPPAYRLARSVNDYGKEAGEDKTSRIIGELDGVIYDASARQVLLVLEAKQNIDVCKAFKQKERLYNALDATRKTLSQASQGAALTAVQLSAENETKTATTTAAGRNATPAAEAACAASTKLHTEPVVLRFFVTPTTAAEAARENFSVNGCSLVTGVGAEPAANFQDMRNSGDMASAAAPPVRSKAAAARLATAGNPFFTQDNFAAFFGATASAVQGDSTAPSPTPTRSDSMTPRHLGRDQRWIYLTSLSTGNSPGARTTVPAPGGTIHMVELTLVKTACNFVAEAYDSYFQISTLPPTATPALQSLVSAMRVCSAYAPETEPMALFHLFLELPPQECISARAETAAVSRSDPCEYVLHLFRHDVRCKDGAAALEQVWLRENFIDGLVLSEHSFI | not soluble
MGSDKIHHHHHHMLQTTNKPPLTIRLCQPRGFCAGVDRAIQIVVLALKKYGAPVYVRHEIVHNRYVVEGLQSLGAVFIEELSEIPAEHRRSPVVFSAHGVPKSVPADAQARNLFYLDATCPLVSKVHKQAMRHQRLGRHVLLIGHAGHPEVIGTMGQLPEGAVTLVETEADAARLVPADPKALGFVTQTTLSVEDTAGIIRALRERFPDLQAPAAESICYATTNRQEAVKDTAPGADLYLIVGAPNSSNSRRLVEVAERAGATMSLLVQRAAEIPWNDIGTISTLGLSAGASAPEIIVDEIIDAFRQRFDVTIDLAITATETEDFPVMRVLRDVELTPADMAFVNGAA | not soluble
MTIYFLFGKTGSGKSYIGELLRQLSIVHIDGDNHITQKMRDCLIEDEQMTPEMIDEFVDVLIDVIKTQKTKTPNESFVISQAMYLDKHRLKLLNAIPELEFVMIDVIPVLRASRITNRFRNQESKVSLRYATRMDAFFEYPSHETIRLENNQSSDETLIEQIREKMPALFNMESKEELNSGIQLQFALEHHHHHH | soluble
MGSDKIHHHHHHMYKLVIIEDEHIIRKWLRYAIDYKALDILVIGEAKDGKEGAVLIKESQPDIVLTDINMPIMTAFDMFEVTKDQTYAKIILSGYADFPNARSAIHYGVLEFLTKPIEKAALWECLQTIIAKIEKQKGSNQKTDACVYIPLPQMTDQIPEVVKDILEWVHAHFQDKISTSRLAHDLGYSESYIYQNIKKHLQMPLSDYINQYRINQAIQLMQQEPDLMVYEIAQAVGIYDYRYFDRVFKKYLGQTVKAFKEEHFMKDTDRSKPC | not soluble

Source: the DeepSol protein solubility set
